Substitutions are numbered along the chain they refer to. Names may count otherwise.
B1: Pyrococcus horikoshii TET3 aminopeptidase (PhTET3), hydrogenated (enzyme)
chain: MDLKGGESMVDWKLMQEIIEAPGVSGYEHLGIRDIVVDVLKEVADEVKVDKLGNVIAHFKGSSPRIMVAAHMDKIGVMVNHIDKDGYLHIVPIGGVLPETLVAQRIRFFTEKGERYGVVGVLPPHLRRGQEDKGSKIDWDQIVVDVGASSKEEAEEMGFRVGTVGEFAPNFTRLNEHRFATPYLDDRICLYAMIEAARQLGDHEADIYIVGSVQEEVGLRGARVASYAINPEVGIAMDVTFAKQPHDKGKIVPELGKGPVMDVGPNINPKLRAFADEVAKKYEIPLQVEPSPRPTGTDANVMQINREGVATAVLSIPIRYMHSQVELADARDVDNTIKLAKALLEELKPMDFTP
notes: PhTET3, lysyl-aminopeptidase of the M42 family, Pyrococcus horikoshii; It was studied as a dimer (de-oligomerization buffer) and as a dodecamer; also called hPhTET3; hPhTET3 12s; source: E. coli, purified (heating at 85°C, Resource Q, Superose 6; as described by Durá et al., 2009)
B2: Pyrococcus horikoshii TET2 aminopeptidase (PhTET2), wild type (enzyme)
chain: MEVRNMVDYELLKKVVEAPGVSGYEFLGIRDVVIEEIKDYVDEVKVDKLGNVIAHKKGEGPKVMIAAHMDQIGLMVTHIEKNGFLRVAPIGGVDPKTLIAQRFKVWIDKGKFIYGVGASVPPHIQKPEDRKKAPDWDQIFIDIGAESKEEAEDMGVKIGTVITWDGRLERLGKHRFVSIAFDDRIAVYTILEVAKQLKDAKADVYFVATVQEEVGLRGARTSAFGIEPDYGFAIDVTIAADIPGTPEHKQVTHLGKGTAIKIMDRSVICHPTIVRWLEELAKKHEIPYQLEILLGGGTDAGAIHLTKAGVPTGALSVPARYIHSNTEVVDERDVDATVELMTKALENIHELKI
modifications: dPhTET2: random-fractional deuteration, final level approximately 75%; hPhTET2: hydrogenated
notes: PhTET2, leucyl-aminopeptidase of the M42 family, Pyrococcus horikoshii; It was studied as a dimer (de-oligomerization buffer) and as a dodecamer; The preparation of hPhTET2 is not described separately; also called dPhTET2; hPhTET2; source: E. coli, purified (heating at 85°C, Resource Q, Superose 6); dPhTET2 grown in minimal medium with 85% D2O
B3: PhTET2 pentamutant (R217S, R220S, F224S, H248S and I292A) (enzyme, Pyrococcus horikoshii)
chain: B2 chain with R217S, R220S, F224S, H248S, I292A
modifications: deuterated form: random-fractional deuteration, final level approximately 75%; a hydrogenated form was also used
notes: PhTET2, leucyl-aminopeptidase of the M42 family, Pyrococcus horikoshii, with five mutations at the interface between the dimers; The mutant was designed in Appolaire et al. (2013) to slow the oligomerization process; Its deuterated and hydrogenated preparations are kept as one molecule; also called pentamutant PhTET2; mutated PhTET2; source: E. coli, purified (heating at 85°C, Resource Q, …)

What was measured:
[1] = biological target: the molecule itself; assay: small-angle neutron scattering (SANS) with contrast variation; peak 2 (particle 2) heterododecamer of dPhTET2 and hPhTET3; 4.5 mg/ml; 20 mM Tris-HCl, 150 mM NaCl pH 7.5; 0, 49, 70 and 100% D2O; 20 to 80°C; mass calibrated against water; models scored with CRYSON
[2] = biological target: the molecule itself; assay: small-angle neutron scattering (SANS) with contrast variation; peak 1 (particle 1) heterododecamer of dPhTET2 and hPhTET3; 4.5 mg/ml; 20 mM Tris-HCl, 150 mM NaCl pH 7.5; 0, 42, 70 and 100% D2O; 20 to 80°C; mass calibrated against water; models scored with CRYSON
[3] = biological target: the molecule itself; assay: small-angle neutron scattering (SANS); homododecameric reference samples: dPhTET2 12s in 42% D2O and hPhTET3 12s in 100% D2O; 20 mM Tris-HCl, 150 mM NaCl pH 7.5; 20°C
[4] = biological target: B1; assay: small-angle neutron scattering (SANS) with contrast variation; peak 2 (particle 2) heterododecamer of dPhTET2 and hPhTET3; 4.5 mg/ml; 20 mM Tris-HCl, 150 mM NaCl pH 7.5; 0, 49, 70 and 100% D2O; 20 to 80°C; mass calibrated against water; models scored with CRYSON; details: both partners purified
[5] = biological target: B1; assay: small-angle neutron scattering (SANS) with contrast variation; peak 1 (particle 1) heterododecamer of dPhTET2 and hPhTET3; 4.5 mg/ml; 20 mM Tris-HCl, 150 mM NaCl pH 7.5; 0, 42, 70 and 100% D2O; 20 to 80°C; mass calibrated against water; models scored with CRYSON; details: both partners purified
[6] = biological target: the molecule itself; assay: SEC; Superose 6 (native polyacrylamide gels also run) after dialysis of the dodecamers against de-oligomerization buffer: 50 mM CAPS, 20 mM NaCl, 20 mM EDTA pH 10
[7] = biological target: the molecule itself; assay: small-angle neutron scattering (SANS); 1:1 mixtures of preformed homododecameric deuterated and hydrogenated PhTET2 (wild type or pentamutant) in 42% or 100% D2O; temperature raised from 20 to 80°C, 4 h at each temperature

stoichiometry N [4]	stoichiometry N [5]	Binder	stoichiometry N [1]	stoichiometry N [2]	stoichiometry N [3]	stoichiometry N [6]	stoichiometry N [7]
		B1	2	6	12		
2 dPhTET2:hPhTET3 (8:4)	1 dPhTET2:hPhTET3 (6:6)	B2		6	12	2	
		B3					12
